Experimental data reported in article PMC6296668.
Values joined by “and” are separate entries in the source; they are usually repeats but may differ in a detail not shown here. Equal values may be shown once.

Tests used:
[1] = biological target: CAP256 SU gp140-FL-IP (HIV-1 subtype C (CAP256 SU)); experiment: native gel or EMSA; NativePAGE Novex 3-12% Bis-Tris gels (BN-PAGE) of lectin-purified protein, Coomassie stain or anti-gp160 western blot; oligomer judged by molecular weight against NativeMark standard
[2] = biological target: CAP256 gp140-FL-IP-His (HIV-1 subtype C (CAP256 SU)); experiment: as above

Row | Substance | stoichiometry N [1] | stoichiometry N [2]
1 | CAP256 SU gp140-FL-IP (domain or fragment) | 3 | –
2 | CAP256 gp140-FL-IP-His (domain or fragment) | – | 3 and 2
